B1: ROCK1_HUMAN (protein, UniProt Q13464 2-1354, looked up)
Rho-associated protein kinase …: STGDSFETRFEKMDNLLRDPKSEVNSDCLLDGLDALVYDLDFPALRKNKNIDNFLSRYKDTINKIRDLRMKAEDYEVVKVIGRGAFGEVQLVRHKSTRKVYAMKLLSKFEMIKRSDSAFFWEERDIMAFANSPWVVQLFYAFQDDRYLYMVMEYMPGGDLVNLMSNYDVPEKWARFYTAEVVLALDAIHSMGFIHRDVKPDNMLLDKSGHLKLADFGTCMKMNKEGMVRCDTAVGTPDYISPEVLKSQGGDGYYGRECDWWSVGVFLYEMLVGDTPFYADSLVGTYSKIMNHKNSLTFPDDNDISKEAKNLICAFLTDREVRLGRNGVEEIKRHLFFKNDQWAWETLRDTVAPVVPDLSSDIDTSNFDDLEEDKGEEETFPIPKAFVGNQLPFVGFTYYSNRRYLSSANPNDNRTSSNADKSLQESLQKTIYKLEEQLHNEMQLKDEMEQKCRTSNIKLDKIMKELDEEGNQRRNLESTVSQIEKEKMLLQHRINEYQRKAEQENEKRRNVENEVSTLKDQLEDLKKVSQNSQLANEKLSQLQKQLEEANDLLRTESDTAVRLRKSHTEMSKSISQLESLNRELQERNRILENSKSQTDKDYYQLQAILEAERRDRGHDSEMIGDLQARITSLQEEVKHLKHNLEKVEGERKEAQDMLNHSEKEKNNLEIDLNYKLKSLQQRLEQEVNEHKVTKARLTDKHQSIEEAKSVAMCEMEKKLKEEREAREKAENRVVQIEKQCSMLDVDLKQSQQKLEHLTGNKERMEDEVKNLTLQLEQESNKRLLLQNELKTQAFEADNLKGLEKQMKQEINTLLEAKRLLEFELAQLTKQYRGNEGQMRELQDQLEAEQYFSTLYKTQVKELKEEIEEKNRENLKKIQELQNEKETLATQLDLAETKAESEQLARGLLEEQYFELTQESKKAASRNRQEITDKDHTVSRLEEANSMLTKDIEILRRENEELTEKMKKAEEEYKLEKEEEISNLKAAFEKNINTERTLKTQAVNKLAEIMNRKDFKIDRKKANTQDLRKKEKENRKLQLELNQEREKFNQMVVKHQKELNDMQAQLVEECAHRNELQMQLASKESDIEQLRAKLLDLSDSTSVASFPSADETDGNLPESRIEGWLSVPNRGNIKRYGWKKQYVVVSSKKILFYNDEQDKEQSNPSMVLDIDKLFHVRPVTQGDVYRAETEEIPKIFQILYANEGECRKDVEMEPVQQAEKTNFQNHKGHEFIPTLYHFPANCDACAKPLWHVFKPPPALECRRCHVKCHRDHLDKKEDLICPCKVSYDVTSARDMLLLACSQDEQKKWVTHLVKKIPKNPPSGFVRASPRTLSTRSTANQSFRKVVKNTSGKTS
B2: SF3A1_HUMAN (protein, UniProt Q15459 2-793, looked up)
Splicing factor 3A subunit 1: PAGPVQAVPPPPPVPTEPKQPTEEEASSKEDSAPSKPVVGIIYPPPEVRNIVDKTASFVARNGPEFEARIRQNEINNPKFNFLNPNDPYHAYYRHKVSEFKEGKAQEPSAAIPKVMQQQQQTTQQQLPQKVQAQVIQETIVPKEPPPEFEFIADPPSISAFDLDVVKLTAQFVARNGRQFLTQLMQKEQRNYQFDFLRPQHSLFNYFTKLVEQYTKILIPPKGLFSKLKKEAENPREVLDQVCYRVEWAKFQERERKKEEEEKEKERVAYAQIDWHDFVVVETVDFQPNEQGNFPPPTTPEELGARILIQERYEKFGESEEVEMEVESDEEDDKQEKAEEPPSQLDQDTQVQDMDEGSDDEEEGQKVPPPPETPMPPPLPPTPDQVIVRKDYDPKASKPLPPAPAPDEYLVSPITGEKIPASKMQEHMRIGLLDPRWLEQRDRSIREKQSDDEVYAPGLDIESSLKQLAERRTDIFGVEETAIGKKIGEEEIQKPEEKVTWDGHSGSMARTQQAAQANITLQEQIEAIHKAKGLVPEDDTKEKIGPSKPNEIPQQPPPPSSATNIPSSAPPITSVPRPPTMPPPVRTTVVSAVPVMPRPPMASVVRLPPGSVIAPMPPIIHAPRINVVPMPPSAPPIMAPRPPPMIVPTAFVPAPPVAPVPAPAPMPPVHPPPPMEDEPTSKKLKTEDSLMPEEEFLRRNKGPVSIKVQVPNMQDKTEWKLNGQVLVFTLPLTDQVSVIKVKIHEATGMPAGKQKLQYEGIFIKDSNSLAYYNMANGAVIHLALKERGGRKK
B3: SRRT_HUMAN (protein, UniProt Q9BXP5 2-876, looked up)
Serrate RNA effector molecule …: GDSDDEYDRRRRDKFRRERSDYDRSRERDERRRGDDWNDREWDRGRERRSRGEYRDYDRNRRERFSPPRHELSPPQKRMRRDWDEHSSDPYHSGYEMPYAGGGGGPTYGPPQPWGHPDVHIMQHHVLPIQARLGSIAEIDLGVPPPVMKTFKEFLLSLDDSVDETEAVKRYNDYKLDFRRQQMQDFFLAHKDEEWFRSKYHPDEVGKRRQEARGALQNRLRVFLSLMETGWFDNLLLDIDKADAIVKMLDAAVIKMEGGTENDLRILEQEEEEEQAGKPGEPSKKEEGRAGAGLGDGERKTNDKDEKKEDGKQAENDSSNDDKTKKSEGDGDKEEKKEDSEKEAKKSSKKRNRKHSGDDSFDEGSVSESESESESGQAEEEKEEAEEALKEKEKPKEEEWEKPKDAAGLECKPRPLHKTCSLFMRNIAPNISRAEIISLCKRYPGFMRVALSEPQPERRFFRRGWVTFDRSVNIKEICWNLQNIRLRECELSPGVNRDLTRRVRNINGITQHKQIVRNDIKLAAKLIHTLDDRTQLWASEPGTPPLPTSLPSQNPILKNITDYLIEEVSAEEEELLGSSGGAPPEEPPKEGNPAEINVERDEKLIKVLDKLLLYLRIVHSLDYYNTCEYPNEDEMPNRCGIIHVRGPMPPNRISHGEVLEWQKTFEEKLTPLLSVRESLSEEEAQKMGRKDPEQEVEKFVTSNTQELGKDKWLCPLSGKKFKGPEFVRKHIFNKHAEKIEEVKKEVAFFNNFLTDAKRPALPEIKPAQPPGPAQILPPGLTPGLPYPHQTPQGLMPYGQPRPPILGYGAGAVRPAVPTGGPPYPHAPYGAGRGNYDAFRGQGGYPGKPRNRMVRGDPRAIVEYRDLDAPDDVDFF
B4: DDX42_HUMAN (protein, UniProt Q86XP3 1-938, looked up)
ATP-dependent RNA helicase …: MNWNKGGPGTKRGFGFGGFAISAGKKEEPKLPQQSHSAFGATSSSSGFGKSAPPQLPSFYKIGSKRANFDEENAYFEDEEEDSSNVDLPYIPAENSPTRQQFHSKPVDSDSDDDPLEAFMAEVEDQAARDMKRLEEKDKERKNVKGIRDDIEEEDDQEAYFRYMAENPTAGVVQEEEEDNLEYDSDGNPIAPTKKIIDPLPPIDHSEIDYPPFEKNFYNEHEEITNLTPQQLIDLRHKLNLRVSGAAPPRPGSSFAHFGFDEQLMHQIRKSEYTQPTPIQCQGVPVALSGRDMIGIAKTGSGKTAAFIWPMLIHIMDQKELEPGDGPIAVIVCPTRELCQQIHAECKRFGKAYNLRSVAVYGGGSMWEQAKALQEGAEIVVCTPGRLIDHVKKKATNLQRVSYLVFDEADRMFDMGFEYQVRSIASHVRPDRQTLLFSATFRKKIEKLARDILIDPIRVVQGDIGEANEDVTQIVEILHSGPSKWNWLTRRLVEFTSSGSVLLFVTKKANAEELANNLKQEGHNLGLLHGDMDQSERNKVISDFKKKDIPVLVATDVAARGLDIPSIKTVINYDVARDIDTHTHRIGRTGRAGEKGVAYTLLTPKDSNFAGDLVRNLEGANQHVSKELLDLAMQNAWFRKSRFKGGKGKKLNIGGGGLGYRERPGLGSENMDRGNNNVMSNYEAYKPSTGAMGDRLTAMKAAFQSQYKSHFVAASLSNQKAGSSAAGASGWTSAGSLNSVPTNSAQQGHNSPDSPVTSAAKGIPGFGNTGNISGAPVTYPSAGAQGVNNTASGNNSREGTGGSNGKRERYTENRGSSRHSHGETGNRHSDSPRHGDGGRHGDGYRHPESSSRHTDGHRHGENRHGGSAGRHGENRGANDGRNGESRKEAFNRESKMEPKMEPKVDSSKMDKVDSKTDKTADGFAVPEPPKRKKSRWDS
B5: CYFP1_HUMAN (protein, UniProt Q7L576 1-1253, looked up)
Cytoplasmic FMR1-interacting …: MAAQVTLEDALSNVDLLEELPLPDQQPCIEPPPSSLLYQPNFNTNFEDRNAFVTGIARYIEQATVHSSMNEMLEEGQEYAVMLYTWRSCSRAIPQVKCNEQPNRVEIYEKTVEVLEPEVTKLMNFMYFQRNAIERFCGEVRRLCHAERRKDFVSEAYLITLGKFINMFAVLDELKNMKCSVKNDHSAYKRAAQFLRKMADPQSIQESQNLSMFLANHNKITQSLQQQLEVISGYEELLADIVNLCVDYYENRMYLTPSEKHMLLKVMGFGLYLMDGSVSNIYKLDAKKRINLSKIDKYFKQLQVVPLFGDMQIELARYIKTSAHYEENKSRWTCTSSGSSPQYNICEQMIQIREDHMRFISELARYSNSEVVTGSGRQEAQKTDAEYRKLFDLALQGLQLLSQWSAHVMEVYSWKLVHPTDKYSNKDCPDSAEEYERATRYNYTSEEKFALVEVIAMIKGLQVLMGRMESVFNHAIRHTVYAALQDFSQVTLREPLRQAIKKKKNVIQSVLQAIRKTVCDWETGHEPFNDPALRGEKDPKSGFDIKVPRRAVGPSSTQLYMVRTMLESLIADKSGSKKTLRSSLEGPTILDIEKFHRESFFYTHLINFSETLQQCCDLSQLWFREFFLELTMGRRIQFPIEMSMPWILTDHILETKEASMMEYVLYSLDLYNDSAHYALTRFNKQFLYDEIEAEVNLCFDQFVYKLADQIFAYYKVMAGSLLLDKRLRSECKNQGATIHLPPSNRYETLLKQRHVQLLGRSIDLNRLITQRVSAAMYKSLELAIGRFESEDLTSIVELDGLLEINRMTHKLLSRYLTLDGFDAMFREANHNVSAPYGRITLHVFWELNYDFLPNYCYNGSTNRFVRTVLPFSQEFQRDKQPNAQPQYLHGSKALNLAYSSIYGSYRNFVGPPHFQVICRLLGYQGIAVVMEELLKVVKSLLQGTILQYVKTLMEVMPKICRLPRHEYGSPGILEFFHHQLKDIVEYAELKTVCFQNLREVGNAILFCLLIEQSLSLEEVCDLLHAAPFQNILPRVHVKEGERLDAKMKRLESKYAPLHLVPLIERLGTPQQIAIAREGDLLTKERLCCGLSMFEVILTRIRSFLDDPIWRGPLPSNGVMHVDECVEFHRLWSAMQFVYCIPVGTHEFTVEQCFGDGLHWAGCMIIVLLGQQRRFAVLDFCYHLLKVQKHDGKDEIIKNVPLKKMVERIRKFQILNDEIITILDKYLKSGDGEGTPVEHVRCFQPPIHQSLASS
B6: PR40A_HUMAN (protein, UniProt O75400 1-957, looked up)
Pre-mRNA-processing factor 40 …: MRPGTGAERGGLMVSEMESHPPSQGPGDGERRLSGSSLCSGSWVSADGFLRRRPSMGHPGMHYAPMGMHPMGQRANMPPVPHGMMPQMMPPMGGPPMGQMPGMMSSVMPGMMMSHMSQASMQPALPPGVNSMDVAAGTASGAKSMWTEHKSPDGRTYYYNTETKQSTWEKPDDLKTPAEQLLSKCPWKEYKSDSGKPYYYNSQTKESRWAKPKELEDLEGYQNTIVAGSLITKSNLHAMIKAEESSKQEECTTTSTAPVPTTEIPTTMSTMAAAEAAAAVVAAAAAAAAAAAAANANASTSASNTVSGTVPVVPEPEVTSIVATVVDNENTVTISTEEQAQLTSTPAIQDQSVEVSSNTGEETSKQETVADFTPKKEEEESQPAKKTYTWNTKEEAKQAFKELLKEKRVPSNASWEQAMKMIINDPRYSALAKLSEKKQAFNAYKVQTEKEEKEEARSKYKEAKESFQRFLENHEKMTSTTRYKKAEQMFGEMEVWNAISERDRLEIYEDVLFFLSKKEKEQAKQLRKRNWEALKNILDNMANVTYSTTWSEAQQYLMDNPTFAEDEELQNMDKEDALICFEEHIRALEKEEEEEKQKSLLRERRRQRKNRESFQIFLDELHEHGQLHSMSSWMELYPTISSDIRFTNMLGQPGSTALDLFKFYVEDLKARYHDEKKIIKDILKDKGFVVEVNTTFEDFVAIISSTKRSTTLDAGNIKLAFNSLLEKAEAREREREKEEARKMKRKESAFKSMLKQAAPPIELDAVWEDIRERFVKEPAFEDITLESERKRIFKDFMHVLEHECQHHHSKNKKHSKKSKKHHRKRSRSRSGSDSDDDDSHSKKKRQRSESRSASEHSSSAESERSYKKSKKHKKKSKKRRHKSDSPESDAEREKDKKEKDRESEKDRTRQRSESKHKSPKKKTGKDSGNWDTSGSELSEGELEKRRRTLLEQLDDDQ

This assay deals with KDM4A-I71AzF. Nature of the assay: CASI: photo-crosslinking with HEK293T cell extracts, StrepTactin enrichment and LC-MS/MS proteomics.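 Further: lysates from HEK293T cells pretreated with a KDM4 inhibitor to raise proteome methylation, affinity-purified after ±UV, gel-resolved, trypsin-digested, with exclusive unique peptides per protein averaged per condition.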 Type of assay: binding, human. The note with it: sheet "Final results but with 0.01".
As for B1, the “Fold change (+UV/-UV)” value came to 0.

With B2, the “Fold change (+UV/-UV)” value is recorded as 0.

B3: the “Fold change (+UV/-UV)” value was determined as 0.5385.

Turning to B4, the “Fold change (+UV/-UV)” value came out at 0.6.

Consider B5, for which the “Fold change (+UV/-UV)” value is given as 0.6.

With B6, the “Fold change (+UV/-UV)” value amounted to 0.5.
